Results reported in patent EP1638605B1 (Raptor Pharmaceutical, Inc., dated 2014).
Each block holds one molecule with its values, some of them ahead of it.

What was measured:
[1] = biological target: mLRP/LRPTmMegT mini-receptor (fourth ligand binding and transmembrane domains of LRP1 with the C-terminal cytoplasmic tail of megalin) on MDCK cells (UniProt Q07954); test: cell-based or functional assay
[2] = biological target: T1, recombinant human alpha-L-iduronidase (Aldurazyme) (human, UniProt P35475 27-653, limits assumed); test: ligand blot, sLRP2 (1 µg/well) on membrane, antibody detection
T1 construct: also called rhIDU; Recombinant human IDU
T1 sequence (looked up): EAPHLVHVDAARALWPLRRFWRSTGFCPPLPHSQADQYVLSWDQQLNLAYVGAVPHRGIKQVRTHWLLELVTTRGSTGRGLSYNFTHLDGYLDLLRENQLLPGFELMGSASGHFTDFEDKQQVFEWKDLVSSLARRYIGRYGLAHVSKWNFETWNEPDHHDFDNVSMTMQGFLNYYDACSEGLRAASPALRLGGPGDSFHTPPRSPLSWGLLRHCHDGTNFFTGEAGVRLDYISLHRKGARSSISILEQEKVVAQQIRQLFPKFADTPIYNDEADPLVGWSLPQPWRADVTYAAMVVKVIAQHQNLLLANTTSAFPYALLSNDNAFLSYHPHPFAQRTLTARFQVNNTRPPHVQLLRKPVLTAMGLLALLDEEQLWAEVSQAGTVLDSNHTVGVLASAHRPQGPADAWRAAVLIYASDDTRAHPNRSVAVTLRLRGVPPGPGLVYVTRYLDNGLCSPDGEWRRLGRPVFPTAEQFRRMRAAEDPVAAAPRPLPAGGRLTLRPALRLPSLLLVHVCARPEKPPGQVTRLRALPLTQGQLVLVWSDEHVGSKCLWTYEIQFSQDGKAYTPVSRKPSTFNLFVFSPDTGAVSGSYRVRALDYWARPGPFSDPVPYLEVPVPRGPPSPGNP

mLRP/LRPTmMegT mini-receptor (fourth ligand binding and transmembrane domains of LRP1 with the C-terminal cytoplasmic tail of megalin) on MDCK cells, sequence (Q07954 3293-4444): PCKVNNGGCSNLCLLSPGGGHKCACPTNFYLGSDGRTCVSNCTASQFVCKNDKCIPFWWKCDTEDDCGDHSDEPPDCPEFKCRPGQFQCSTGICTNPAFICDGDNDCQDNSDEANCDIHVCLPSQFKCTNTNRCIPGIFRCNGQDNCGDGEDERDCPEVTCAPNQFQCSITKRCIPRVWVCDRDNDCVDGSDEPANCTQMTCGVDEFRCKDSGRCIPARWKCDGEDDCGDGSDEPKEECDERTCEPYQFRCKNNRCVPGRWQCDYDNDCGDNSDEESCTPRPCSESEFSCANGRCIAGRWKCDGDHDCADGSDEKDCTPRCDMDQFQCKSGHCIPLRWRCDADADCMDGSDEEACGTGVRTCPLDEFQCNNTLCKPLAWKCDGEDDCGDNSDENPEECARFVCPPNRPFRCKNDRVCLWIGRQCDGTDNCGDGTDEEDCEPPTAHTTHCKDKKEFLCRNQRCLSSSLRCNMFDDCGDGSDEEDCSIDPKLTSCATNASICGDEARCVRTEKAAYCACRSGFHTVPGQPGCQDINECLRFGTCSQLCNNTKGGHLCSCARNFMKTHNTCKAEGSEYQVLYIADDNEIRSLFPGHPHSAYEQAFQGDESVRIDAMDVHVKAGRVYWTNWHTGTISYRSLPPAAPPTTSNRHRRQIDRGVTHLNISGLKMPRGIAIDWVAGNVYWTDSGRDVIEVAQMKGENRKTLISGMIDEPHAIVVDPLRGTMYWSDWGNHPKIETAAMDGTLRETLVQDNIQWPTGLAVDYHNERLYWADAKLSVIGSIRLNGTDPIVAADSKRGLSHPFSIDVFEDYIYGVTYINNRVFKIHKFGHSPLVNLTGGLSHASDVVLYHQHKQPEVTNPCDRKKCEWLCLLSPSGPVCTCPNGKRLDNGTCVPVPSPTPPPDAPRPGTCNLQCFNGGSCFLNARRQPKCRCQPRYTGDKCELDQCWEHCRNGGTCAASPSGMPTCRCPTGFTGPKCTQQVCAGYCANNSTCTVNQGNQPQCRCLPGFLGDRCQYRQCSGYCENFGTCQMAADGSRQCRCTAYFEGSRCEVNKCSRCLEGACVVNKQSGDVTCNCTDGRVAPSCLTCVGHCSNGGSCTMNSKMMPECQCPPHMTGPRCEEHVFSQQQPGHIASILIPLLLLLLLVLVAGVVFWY

- apical-to-basolateral permeability coefficient of 125I-RAP across MEGt-transfected MDCK monolayers with excess unlabeled RAP at 2 µg/ml [1]: 6.3 ×10⁻⁶ cm/s
- apical-to-basolateral permeability coefficient of 125I-RAP across MEGt-transfected MDCK monolayers, 60 min [1]: 18.1 ×10⁻⁶ cm/s
- ratio of apical-to-basolateral to basolateral-to-apical permeability coefficient of 125I-RAP in MEGt-transfected MDCK cells [1]: 460 fold
Molecule: receptor-associated protein (RAP) (ligand)

- binding result [2]: no binding
B1: sLRP2, the entire second ligand-binding domain of human LRP1 (recombinant) (receptor, UniProt Q07954 806-1183, looked up)
chain: KCRVNNGGCSSLCLATPGSRQCACAEDQVLDADGVTCLANPSYVPPPQCQPGEFACANSRCIQERWKCDGDNDCLDNSDEAPALCHQHTCPSDRFKCENNRCIPNRWLCDGDNDCGNSEDESNATCSARTCPPNQFSCASGRCIPISWTCDLDDDCGDRSDESASCAYPTCFPLTQFTCNNGRCININWRCDNDNDCGDNSDEAGCSHSCSSTQFKCNSGRCIPEHWTCDGDNDCGDYSDETHANCTNQATRPPGGCHTDEFQCRLDGLCIPLRWRCDGDTDCMDSSDEKSCEGVTHVCDPSVKFGCKDSARCISKAWVCDGDNDCEDNSDEENCESLACRPPSHPCANNTSVCLPPDKLCDGNDDCGDGSDEGELCD
notes: also called immobilized LRP
